Experimental data reported in patent US20210188980A1 (SHANGHAI EPIMAB BIOTHERAPEUTICS, published 2021).

Experiments:
[1] = target: T1, cynomolgus PD-1 expressed on CHO-K1 cells (cynomolgus monkey, UniProt B0LAJ3 25-288); test: FACS, CHO-K1/cynoPD-1 cells
T1 construct: also called CHO-K1/cynoPD-1; CHO-K1-cynoPD-1
Protocol: (§1) CHO-K1/huPD-1 or CHO-K1/cynoPD-1 cells, described above, were charged at 2×10⁴ cell per well into 96-well assay round-bottomed assay plates (Cat. No. 3799; Corning) and stained with purified anti-PD-1 antibodies. PD-1 antibodies were detected with AlexaFluor® Donkey anti-Mouse IgG (H+L) Highly Cross-Adsorbed Secondary Antibody, (Cat. No. A21202; Invitrogen), and cell fluorescence was monitored using a flow cytometer. The data were processed by GraphPad software, and EC50 values were calculated.

[2] = target: T2, human PD-1 ECD/Fc fusion protein (human); test: RBA ELISA on huPD-1/Fc; competitor biotin-huPD-L2/Fc
T2 construct: also called huPD-1/Fc; HuPD-1 ECD/Fc
Protocol: (§2) Supernatants displaying PD-1 specific activity were tested for the ability to block PD-1 binding to its ligands PD-L1 and PD-L2 using immobilized human PD-1 ECD/Fc as a target and PD-L1/Fc and PD-L2/Fc fusion proteins, prepared in the same manner as the PD-1 ECD/Fc binding proteins described in Example 1.3 above. To determine the relative potency of the antibody-containing supernatants, their ability to inhibit the binding of a human PD-1 ligand (PD-L1 or PD-L2) to human PD-1 protein was evaluated. ELISA plates were coated with 100 μl of 50 ng/m of huPD-1/Fc (i.e., the extracellular domain of PD-1 grafted onto the N-terminus of a human Fc region, recovered as a homodimer) in PBS and incubated overnight at 4° C. Plates were washed four times in washing buffer (PBS containing 0.05% Tween 20) and blocked for 1 hour at 37° C. with 200 μl per well of blocking buffer (1% BSA in PBS containing 0.05% Tween 20). After blocking buffer was removed, hybridoma supernatant (50 μl) was added to the wells, mixed with either 50 μl biotinylated human PD-L1/Fc ([…] final concentration) in blocking buffer or 50 μl biotinylated human PD-L2/Fc (final concentration 50 μg/ml) in blocking buffer, then incubated at 37° C. for 1 hour. Signal was developed by adding streptavidin-HRP (Sigma, Cat. No. S2468) (100 μl/well of streptavidin-HRP at 1:5000 dilution) and incubating for 40 minutes at 37° C. and washed four times in washing buffer. 100 μl of TMB solution were added per well. Following color development, the reaction was stopped with 1 Normal HCl and absorbance at 450 nm was measured. […]

[3] = target: T2, human PD-1 ECD/Fc fusion protein; test: ELISA, coated huPD-1/Fc
Protocol: ELISA plates were incubated overnight at 4° C. with 50 μl of the synthetic human PD-1 ECD/Fc fusion protein targets described above diluted in PBS buffer, pH 7.4, at 1 μg/ml. Plates were washed four times in washing buffer (PBS containing 0.05% Tween 20), and blocked for 1 hour at 37° C. with 200 μl per well blocking buffer (1% BSA in PBS containing 0.05% Tween 20). After blocking buffer was removed, hybridoma supernatant (or later diluted purified mAbs) were added to the wells at 100 μl per well and incubated at 37° C. for 1 hour. The wells were washed four times with washing buffer, and anti-mouse HRP (Sigma) for mouse anti-human PD-1 antibody characterization were diluted 1:5000 and added to the wells at 100 μl per well. The plates were incubated for 1 hour at 37° C. and washed four times in washing buffer. 100 μl of tetramethylbenzidine (TMB) chromogenic solution were added per well. Following color development, the reaction was stopped with 1 Normal HCl and absorbance at 450 nm was measured on a SpectraMax M5e plate reader (Molecular Devices; San Jose, Calif., US).
A binding ELISA was performed in the same way as described in Example 1.3 above. Each purified antibody was 10-fold serially diluted and duplicated. After blocking of the 96-well assay plate with wells containing immobilized PD-1 ECD/Fc fusion protein targets, the purified antibody samples with diluted concentrations were added to wells of assay plates. The HRP-linked anti-mouse IgG antibody (A0168, Sigma) and TMB reagent were used to detect and develop the ELISA signal, which were read on a SpectraMax® M5e plate reader at wavelength of 450 nm. Curves were fitted using GraphPad software, and EC50 were calculated. Similarly, a receptor blocking assay (RBA) was also performed as described in Example 1.5 with titrated, purified antibodies, and top blocking percentages and IC50 values were determined.

[4] = target: T2, human PD-1 ECD/Fc fusion protein; test: SPR Biacore, mAb captured, huPD-1/Fc analyte
Protocol: The binding kinetics of purified antibodies were measured by surface plasmon resonance using a Biacore […] instrument (GE Healthcare) using standard procedures. Briefly, goat anti-mouse IgG Fc polyclonal antibody (Genway) was directly immobilized across a biosensor chip, and antibodies samples were injected over reaction matrices at a flow rate of 5 μl/min. The association and dissociation rate constants, kₒₙ(M⁻¹ s⁻¹) and koff (s⁻¹) respectively, were determined with a continuous flow rate of 30 μl/min. Rate constants were derived by making kinetic binding measurements at five different concentrations of human PD-1/Fc protein. The equilibrium dissociation constant KD (M) of the reaction between antibodies and related target proteins was then calculated from the kinetic rate constants using the formula KD=koff/kₒₙ.

[5] = target: T3, human PD-1 expressed on cells (human, UniProt Q15116 25-288); test: FACS, CHO-K1/huPD-1 cells
T3 construct: whole, on cells; also called CHO-K1/huPD-1; CHO-K1-hPD-1 cells
Protocol: as §1

[6] = target: T2, human PD-1 ECD/Fc fusion protein; test: RBA ELISA on huPD-1/Fc; competitor biotin-huPD-L1/Fc
Protocol: as §2

Binder	EC50 [1]	IC50 [2]	TOP inhibition (%) [2]	EC50 [3]	Kd [4]	koff [4]	kon [4]	EC50 [5]	IC50 [6]	TOP inhibition (%) [6]
mAb715 (antibody, V domains shown, murine hybridoma anti-PD-1 mAb) VH: EVMLVESGGGLLKPGGSLKLSCAASGFTFSSYAMSWVRQTPEKRLEWVATISGGGRDTYYPDSVKGRFTISRDNAKNTLYLQMTSLRSEDTAFYYCAGQGGTYLFASWGQGTLVTVSA VL: DIVMTQSHKFMSTSVGDSVTITCKASQDVNTAVAWYQQKPGQPPKVLIYWASTRHTGVPDRFTGSGSGTDYTLTISSVQAEDLALYYCQQHYTTPYTFGGGTKLEIK	0.9 nM	2.17 nM	88%	0.04 nM	1.5 nM	0.000237 s⁻¹	158000 M⁻¹ s⁻¹	1.1 nM	2.91 nM	86.9%
mAb709 (antibody, V domains shown, murine hybridoma anti-PD-1 mAb) VH: EVKLVESGGGLVKPGGSLKLSCAASGFTFSFYTMSWVRQTPEKRLEWVATISGGGRDTYYPDSVKGRFTISRDNAKNTLYLHMSSLRSEDTALYYCAGQGGNYLFAYWGQGTLVTVSA VL: DIVMTQSHKFMSTSVGDSVTITCKASQDVNTVVAWYQQKPGQSLKVLISWASTRHTGVPARFTGSGSGTDYTLTISSVQAEDLALYYCQQHYTTPYTFGGGTQLEIK	0.2 nM	0.52 nM	93.7%	0.01 nM	0.939 nM	0.000104 s⁻¹	111000 M⁻¹ s⁻¹	0.2 nM	0.8 nM	91.6%
mAb718 (antibody, V domains shown, murine hybridoma anti-PD-1 mAb) VH: QVQLQQSGAELVRPGASVTLSCKASGYTFTDYEMHWAKQTPVHGLEWIGVIEPESGGTVYNQKFKGKAKLTADKSSRTAYMELRSLTSEDSAVYYCTREGFNSDHYFDYWGQGTTLTVSS VL: DVLMTQTPLSLPVSLGDQASISCRSSQNIVHSNGNTYLEWYLQKPGQSPKLLIYKVFNRFSGVPDRFSGSGSGTDFTLKISRVEAEDLGVYYCFQGSHVPYTFGGGTKLEIK	4.2 nM	1.91 nM	96.6%	0.02 nM	4.84 nM	0.000283 s⁻¹	58400 M⁻¹ s⁻¹	3.2 nM	4.19 nM	96.6%
mAb714 (antibody, V domains shown, murine hybridoma anti-PD-1 mAb) VH: EVHLQQSGPELVKPGASVKIFCKASGYTFTDNNVEWVKQSHGKSLEWIGDINPNNGDTLYSQYFKDKATLTVDKSSTTAYMELRSLTSEDTGLYYCARGKSDQFDYWGQGTTLTVSS VL: DIQMTQSPASQSASLGESVTITCLASQTIGTWLAWYQQKPGKSPQLLIYAATSLADGVPSRFSGSGSGTKFSFKISSLQGEDFVSYYCQQLYSSPWTFGGGTKLEIK	0.8 nM	2.24 nM	93.1%	0.05 nM	2.11 nM	0.00021 s⁻¹	99400 M⁻¹ s⁻¹	1.6 nM	2.95 nM	92.3%
mAb703 (antibody, V domains shown, murine hybridoma anti-PD-1 mAb) VH: DVQLQESGPGLVKPSQSLSLTCSVTGYSITTGYYWNWIRQFPGNKLEWMGYMSYDGNNNYNPSLKNRISITRDTSKNQFLLRLNSVTTEDTATYFCARDRGTTILGGTMDYWGQGTSVTVS VL: SIVMTQTPKFLFVSAGDRVTIACKASQSVSNDVAWYQQKPGQSPKLLIYYAFYRYTGVPDRFTGSGYGTDFTFTISTVQAEDLAVYFCQQDYSSPWTFGGGTKLEIK	0.7 nM	2.02 nM	95.7%	0.05 nM	2.45 nM	0.00085 s⁻¹	347000 M⁻¹ s⁻¹	0.5 nM	3 nM	96%

Further lines, results first:

EC50 [1]	IC50 [2]	TOP inhibition (%) [2]	EC50 [3]	Kd [4]	koff [4]	kon [4]	EC50 [5]	IC50 [6]	TOP inhibition (%) [6]	Binder
0.9 nM	2.52 nM	93.5%	0.08 nM	1.96 nM	0.000285 s⁻¹	145000 M⁻¹ s⁻¹	1.1 nM	2.95 nM	94.4%	mAb713 (antibody, V domains shown, murine hybridoma anti-PD-1 mAb) VH: EVKLVESGGGLVKPGGSLELSCAASGFTSSDYGMHWVRQAPEKGLEWVAYISSGSYTIYYADTVKGRFTISRDNAKNTLFLQMTSLRSEDTAMYYCAKRGGSSHVNVMDYWGQGTSVTVSS VL: DIQMTQSSSYLSVSLGGRVTITCKASDHINNWLAWYQQKPGNAPRLLISGATSLETGVPSRFSGSGSGKDYTLSITSLQTEDVATYYCQQYWSPPYTFGGGTKLEIK
3.8 nM	2.67 nM	94.1%	0.1 nM	6.81 nM	0.000512 s⁻¹	75200 M⁻¹ s⁻¹	3 nM	5.32 nM	87.1%	mAb701 (antibody, V domains shown, murine hybridoma anti-PD-1 mAb) VH: EVLLVESGGGLVKPGGSLKLSCAASGFTFSSYMMSWIRQTPERRLEWVASMSGGGRDTYYPDSVKGRFTISRDNAKNTLYLQMSSLRSEDTALYYCARRGTYAMDYWGQGTSVTVSS VL: DIQMTQSPASQSASLGESVTITCLASQTIGTWLTWYQQKPGKSPQLLIYAATSLADGVPSRFSGSGSGTKFSFKISSLQAEDFVSYYCQQLYSTPWTFGGGTKLEIK
2.1 nM	1.85 nM	95.2%	0.02 nM	3 nM	0.000215 s⁻¹	71500 M⁻¹ s⁻¹	1.7 nM	3.39 nM	96.5%	mAb719 (antibody, V domains shown, murine hybridoma anti-PD-1 mAb) VH: EVKLVESGGGLVKPGGSLKLSCTASGFSFSSHLMSWVRQTPEKRLEWVAAISGGGADTYYPDSVKGRFTISRDNAKNTLYLQMRSLRSEDTALYYCTRQILAFDSWGQGTTLTVSS VL: DIQMNQSPSSLSVSLGDTITITCHASQNIYVWLNWYQQKPGNIPKLLIYKASNLHTGVPSRFSGGGSGTGFTLTISSLQPEDIATYYCQQGQSYPWTFGGGTKLEIK
